# Test results as given in patent US20240425606A1, “ANTI-IL-11RA ANTIBODIES” (Lassen Therapeutics 1, Inc., priority 2021, published 2024).
# T1: hIL-1 IR (Homo sapiens, UniProt Q14626)
# T1 sequence (Q14626 23-422): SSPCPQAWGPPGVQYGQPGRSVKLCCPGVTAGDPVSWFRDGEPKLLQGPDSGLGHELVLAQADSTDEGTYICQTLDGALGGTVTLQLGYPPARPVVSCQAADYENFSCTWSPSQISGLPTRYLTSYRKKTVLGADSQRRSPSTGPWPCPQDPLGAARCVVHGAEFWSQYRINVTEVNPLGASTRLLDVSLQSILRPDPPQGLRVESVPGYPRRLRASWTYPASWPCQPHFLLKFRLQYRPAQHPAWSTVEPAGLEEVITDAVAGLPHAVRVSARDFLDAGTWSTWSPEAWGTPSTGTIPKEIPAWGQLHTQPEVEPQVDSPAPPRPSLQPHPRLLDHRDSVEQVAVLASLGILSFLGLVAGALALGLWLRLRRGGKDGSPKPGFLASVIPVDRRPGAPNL
# Target: T1, hIL-1 IR
# Assay: Alternate biolayer interferometry assay (AHC biosensors) ranking mAbs 16-32 against mAb5
# Format: binding
# Conditions: compared to mAb5
# From the text: A further series of antibodies were designed in which the residue at Kabat position 31 of the heavy chain was varied (mAbs 16-32). In this case an alternate biolayer interferometry assay was used to initially rank the antibodies compared to mAb5, the closest relative in sequence to mAbs 16-32. MAbs were loaded onto anti-human constant domain (AHC) biosensors (FortdBio) in 10× kinetics buffer consisting of PBS, 0.1% BSA, 0.02% Tween 20 for 120 s to achieve a spectral shift value of 0.8 to 1.2 nm. Association was carried out in the presence of 2-fold dilution series of hIL-1 IR and was allowed to proceed for 120 s. Dilution series started 10 nM. The dissociation in 10× kinetics buffer for 1200 s. Binding kinetic measurements were taken on an Octet RED96e instrument.
row,Molecule,qualitative assessment
1,"mAb20: anti-IL-11Rα antibody; VH SEQ ID NO: 231, VL SEQ ID NO: 232; heavy chain Kabat position 31 variant of mAb5 (antibody, V domains shown, mAb20 VH Chain; mAb20 VL Chain, anti-IL-11Rα antibody; heavy chain Kabat position 31 variant of mAb5) VH: EVQLLESGGGLVQPGGSLRLSCAASGFTFSGYSMTWVRQAPGKGLEWVSSIVPYGDLTQYADSVKGRFTISRDNSKNTLYLQMNSLRAEDTAVYYCAKGPGWGSFDLWGRGTLVTVSS VL: DIQMTQSPSSLSASVGDRVTITCQASQDINNYLNWYQQKPGKAPKLLIYDASNLQTGVPSRFSGSGSGTDFTFTISSLQPEDIATYYCQQHESQSPTFGPGTKVDIK",similar
2,"mAb22: anti-IL-11Rα antibody; VH SEQ ID NO: 235, VL SEQ ID NO: 236; heavy chain Kabat position 31 variant of mAb5 (antibody, V domains shown, mAb22 VH Chain; mAb22 VL Chain, anti-IL-11Rα antibody; heavy chain Kabat position 31 variant of mAb5) VH: EVQLLESGGGLVQPGGSLRLSCAASGFTFSIYSMTWVRQAPGKGLEWVSSIVPYGDLTQYADSVKGRFTISRDNSKNTLYLQMNSLRAEDTAVYYCAKGPGWGSFDLWGRGTLVTVSS VL: DIQMTQSPSSLSASVGDRVTITCQASQDINNYLNWYQQKPGKAPKLLIYDASNLQTGVPSRFSGSGSGTDFTFTISSLQPEDIATYYCQQHESQSPTFGPGTKVDIK",similar
3,"mAb19: anti-IL-11Rα antibody; VH SEQ ID NO: 229, VL SEQ ID NO: 230; heavy chain Kabat position 31 variant of mAb5 (antibody, V domains shown, mAb19 VH Chain; mAb19 VL Chain, anti-IL-11Rα antibody; heavy chain Kabat position 31 variant of mAb5) VH: EVQLLESGGGLVQPGGSLRLSCAASGFTFSFYSMTWVRQAPGKGLEWVSSIVPYGDLTQYADSVKGRFTISRDNSKNTLYLQMNSLRAEDTAVYYCAKGPGWGSFDLWGRGTLVTVSS VL: DIQMTQSPSSLSASVGDRVTITCQASQDINNYLNWYQQKPGKAPKLLIYDASNLQTGVPSRFSGSGSGTDFTFTISSLQPEDIATYYCQQHESQSPTFGPGTKVDIK",similar
4,"mAb16: anti-IL-11Rα antibody; VH SEQ ID NO: 223, VL SEQ ID NO: 224; heavy chain Kabat position 31 variant of mAb5 (antibody, V domains shown, mAb16 VH Chain; mAb16 VL Chain, anti-IL-11Rα antibody; heavy chain Kabat position 31 variant of mAb5) VH: EVQLLESGGGLVQPGGSLRLSCAASGFTFSAYSMTWVRQAPGKGLEWVSSIVPYGDLTQYADSVKGRFTISRDNSKNTLYLQMNSLRAEDTAVYYCAKGPGWGSFDLWGRGTLVTVSS VL: DIQMTQSPSSLSASVGDRVTITCQASQDINNYLNWYQQKPGKAPKLLIYDASNLQTGVPSRFSGSGSGTDFTFTISSLQPEDIATYYCQQHESQSPTFGPGTKVDIK",similar
5,"mAb26: anti-IL-11Rα antibody; VH SEQ ID NO: 243, VL SEQ ID NO: 244; heavy chain Kabat position 31 variant of mAb5 (antibody, V domains shown, mAb23 VH Chain; mAb26 VL Chaim, anti-IL-11Rα antibody; heavy chain Kabat position 31 variant of mAb5) VH: EVQLLESGGGLVQPGGSLRLSCAASGFTFSNYSMTWVRQAPGKGLEWVSSIVPYGDLTQYADSVKGRFTISRDNSKNTLYLQMNSLRAEDTAVYYCAKGPGWGSFDLWGRGTLVTVSS VL: DIQMTQSPSSLSASVGDRVTITCQASQDINNYLNWYQQKPGKAPKLLIYDASNLQTGVPSRFSGSGSGTDFTFTISSLQPEDIATYYCQQHESQSPTFGPGTKVDIK",decreased
6,"mAb25: anti-IL-11Rα antibody; VH SEQ ID NO: 241, VL SEQ ID NO: 242; heavy chain Kabat position 31 variant of mAb5 (antibody, V domains shown, mAb25 VH Chain; mAb25 VL Chain, anti-IL-11Rα antibody; heavy chain Kabat position 31 variant of mAb5) VH: EVQLLESGGGLVQPGGSLRLSCAASGFTFSMYSMTWVRQAPGKGLEWVSSIVPYGDLTQYADSVKGRFTISRDNSKNTLYLQMNSLRAEDTAVYYCAKGPGWGSFDLWGRGTLVTVSS VL: DIQMTQSPSSLSASVGDRVTITCQASQDINNYLNWYQQKPGKAPKLLIYDASNLQTGVPSRFSGSGSGTDFTFTISSLQPEDIATYYCQQHESQSPTFGPGTKVDIK",similar
7,"mAb27: anti-IL-11Rα antibody; VH SEQ ID NO: 245, VL SEQ ID NO: 246; heavy chain Kabat position 31 variant of mAb5 (antibody, V domains shown, mAb27 VH Chain; mAb27 VL Chain, anti-IL-11Rα antibody; heavy chain Kabat position 31 variant of mAb5) VH: EVQLLESGGGLVQPGGSLRLSCAASGFTFSPYSMTWVRQAPGKGLEWVSSIVPYGDLTQYADSVKGRFTISRDNSKNTLYLQMNSLRAEDTAVYYCAKGPGWGSFDLWGRGTLVTVSS VL: DIQMTQSPSSLSASVGDRVTITCQASQDINNYLNWYQQKPGKAPKLLIYDASNLQTGVPSRFSGSGSGTDFTFTISSLQPEDIATYYCQQHESQSPTFGPGTKVDIK",decreased
8,"mAb28: anti-IL-11Rα antibody; VH SEQ ID NO: 247, VL SEQ ID NO: 248; heavy chain Kabat position 31 variant of mAb5 (antibody, V domains shown, mAb28 VH Chain; mAb28 VL Chain, anti-IL-11Rα antibody; heavy chain Kabat position 31 variant of mAb5) VH: EVQLLESGGGLVQPGGSLRLSCAASGFTFSRYSMTWVRQAPGKGLEWVSSIVPYGDLTQYADSVKGRFTISRDNSKNTLYLQMNSLRAEDTAVYYCAKGPGWGSFDLWGRGTLVTVSS VL: DIQMTQSPSSLSASVGDRVTITCQASQDINNYLNWYQQKPGKAPKLLIYDASNLQTGVPSRFSGSGSGTDFTFTISSLQPEDIATYYCQQHESQSPTFGPGTKVDIK",similar
9,"mAb24: anti-IL-11Rα antibody; VH SEQ ID NO: 239, VL SEQ ID NO: 240; heavy chain Kabat position 31 variant of mAb5 (antibody, V domains shown, mAb24 VH Chain; mAb24 VL Chain, anti-IL-11Rα antibody; heavy chain Kabat position 31 variant of mAb5) VH: EVQLLESGGGLVQPGGSLRLSCAASGFTFSLYSMTWVRQAPGKGLEWVSSIVPYGDLTQYADSVKGRFTISRDNSKNTLYLQMNSLRAEDTAVYYCAKGPGWGSFDLWGRGTLVTVSS VL: DIQMTQSPSSLSASVGDRVTITCQASQDINNYLNWYQQKPGKAPKLLIYDASNLQTGVPSRFSGSGSGTDFTFTISSLQPEDIATYYCQQHESQSPTFGPGTKVDIK",similar
10,"mAb32: anti-IL-11Rα antibody; VH SEQ ID NO: 255, VL SEQ ID NO: 256; heavy chain Kabat position 31 variant of mAb5 (antibody, V domains shown, mAb32 VH Chain; mAb32 VL Chain, anti-IL-11Rα antibody; heavy chain Kabat position 31 variant of mAb5) VH: EVQLLESGGGLVQPGGSLRLSCAASGFTFSYYSMTWVRQAPGKGLEWVSSIVPYGDLTQYADSVKGRFTISRDNSKNTLYLQMNSLRAEDTAVYYCAKGPGWGSFDLWGRGTLVTVSS VL: DIQMTQSPSSLSASVGDRVTITCQASQDINNYLNWYQQKPGKAPKLLIYDASNLQTGVPSRFSGSGSGTDFTFTISSLQPEDIATYYCQQHESQSPTFGPGTKVDIK",similar
11,"mAb30: anti-IL-11Rα antibody; VH SEQ ID NO: 251, VL SEQ ID NO: 252; heavy chain Kabat position 31 variant of mAb5 (antibody, V domains shown, mAb30 VH Chain; mAb30 VL Chain, anti-IL-11Rα antibody; heavy chain Kabat position 31 variant of mAb5) VH: EVQLLESGGGLVQPGGSLRLSCAASGFTFSTYSMTWVRQAPGKGLEWVSSIVPYGDLTQYADSVKGRFTISRDNSKNTLYLQMNSLRAEDTAVYYCAKGPGWGSFDLWGRGTLVTVSS VL: DIQMTQSPSSLSASVGDRVTITCQASQDINNYLNWYQQKPGKAPKLLIYDASNLQTGVPSRFSGSGSGTDFTFTISSLQPEDIATYYCQQHESQSPTFGPGTKVDIK",decreased
12,"mAb18: anti-IL-11Rα antibody; VH SEQ ID NO: 227, VL SEQ ID NO: 228; heavy chain Kabat position 31 variant of mAb5 (antibody, V domains shown, mAb18 VH Chain; mAb18 VL Chain, anti-IL-11Rα antibody; heavy chain Kabat position 31 variant of mAb5) VH: EVQLLESGGGLVQPGGSLRLSCAASGFTFSEYSMTWVRQAPGKGLEWVSSIVPYGDLTQYADSVKGRFTISRDNSKNTLYLQMNSLRAEDTAVYYCAKGPGWGSFDLWGRGTLVTVSS VL: DIQMTQSPSSLSASVGDRVTITCQASQDINNYLNWYQQKPGKAPKLLIYDASNLQTGVPSRFSGSGSGTDFTFTISSLQPEDIATYYCQQHESQSPTFGPGTKVDIK",decreased
13,"mAb17: anti-IL-11Rα antibody; VH SEQ ID NO: 225, VL SEQ ID NO: 226; heavy chain Kabat position 31 variant of mAb5 (antibody, V domains shown, mAb17 VH Chain; mAb17 VL Chain, anti-IL-11Rα antibody; heavy chain Kabat position 31 variant of mAb5) VH: EVQLLESGGGLVQPGGSLRLSCAASGFTFSDYSMTWVRQAPGKGLEWVSSIVPYGDLTQYADSVKGRFTISRDNSKNTLYLQMNSLRAEDTAVYYCAKGPGWGSFDLWGRGTLVTVSS VL: DIQMTQSPSSLSASVGDRVTITCQASQDINNYLNWYQQKPGKAPKLLIYDASNLQTGVPSRFSGSGSGTDFTFTISSLQPEDIATYYCQQHESQSPTFGPGTKVDIK",decreased
